These results are taken from article PMC11852929 (Journal of Virology, 2025).

The stoichiometry N is a count of units in the complex or per binding partner.

This test has as its target T1, SARS-CoV-2 Omicron BA.5 S ectodomain trimer (BA.5-Spike-6P) (SARS-CoV-2 Omicron BA.5, S375F | D405N | R408S | K417N | Q498R | N501Y | Y505H).
T1 construct: also called BA.5 spike (S) trimer; BA.5 S trimer
Kind of test: cryo-EM structure. To be noted: both partners purified.

B1: ORB10 fragment antigen-binding region (Fab) (Fab, V domains shown)
VH: QVQLQQSGAELVRPGSSVKISCKASGYAFSNYWMNWVKQRPGEGLEWIGQIYPGDGDTDYNGKFKGRATLTADKSSSTAYMQLSSLTSEDSAVYFCARGDDGYYVYFDYWGQGTTLTVSS
VL: EIVLTQSPALMAASPGEKVTITCSVSSSIGSNNLHWYQQKSETSPKPWIYGTSNLASGVPVRFSGSGSGTSYSLTISTMEAEDAATYYCQQWSGYPLTFGGGTKLEIK
notes: also called ORB10 Fab
On to B1, for which the “stoichiometry N” value amounted to 2 Fabs per S trimer.
